According to article PMC9864903, “Imaging of the Glucose-Dependent Insulinotropic Polypeptide Receptor Using a Novel Radiolabeled Peptide Rationally Designed Based on Endogenous GIP and Synthetic Exendin-4 Sequences” (Pharmaceuticals, 2022):

What was measured:
[1] = dynamic PET/CT organ distribution in pig; type: in vivo; conditions: liver, total radioactivity, dynamic PET/CT
Excerpt: An anesthetized pig (25 kg) was positioned to include the abdomen with pancreas in the center of the 25 cm axial field of view of a Discovery MI PET/CT scanner (GE Healthcare, MI, USA) by assistance of a low-dose CT scout view (140 kV, 10 mAs). The details of the animal handling, preparation, and anesthesia have been previously described.
Attenuation correction was acquired by a 140 kV, 10–80 mA CT examination. The administration of [^68Ga]Ga-C803-GIP (17.3 MBq, corresponding to approximately 2.5 μg peptide or 0.10 μg/kg) was made upon the start of the baseline dynamic scan lasting for 90 min (30 frames; […]). The dynamic scan was followed by a static scan over the brain from 90–120 min post administration. A second PET investigation was performed after an additional 2 h to allow the radioactivity from the first scan to fade from the circulation by decay and excretion.
The GIP(1-42) infusion was continued until the end of the PET scan. Finally, after the last PET scan, a contrast-enhanced CT scan was performed to assist delineation of the tissues, e.g., the pancreas.
Segmentation of the tissues of interest (descending aorta, pancreas, spleen, kidney, liver, and muscle) was performed in PMOD (PMOD Technologies), and time–activity curves were expressed as SUV as detailed above.

[2] = human predicted dosimetry extrapolated from rat organ distribution (OLINDA/EXM 1.1)
Protocol: The predicted dosimetry in humans was calculated using [^68Ga]Ga-C803-GIP organ distribution data obtained in healthy male Sprague Dawley rats. The rat decay-uncorrected SUVs (SUVA) in various organs were normalized to the whole-body adult reference phantom weights (Equation (2)) in order to assess the residence times (MBq-h/MBq) of the tracer in those organs. The data from the measured time points (5, 10, 20, 40, 60, 90, 120, and 180 min) were used for trapezoidal approximation followed by the extrapolation from the last point to infinity by a single exponential fit. The bone marrow blood volume model was used for the determination of the residence time in bone marrow. The absorbed doses were calculated using OLINDA/EXM version 1.1 with reference to adult male and female phantoms (International Commission on Radiological Protection 60). (2) [%/organ]human=SUVA×(gorgan/kgweight)human

CC[C@H](C)[C@H](NC(=O)[C@H](CO)NC(=O)[C@H](Cc1ccc(O)cc1)NC(=O)[C@H](CC(=O)O)NC(=O)[C@H](CO)NC(=O)[C@@H](NC(=O)[C@H](Cc1ccccc1)NC(=O)[C@@H](NC(=O)CNC(=O)[C@H](CCC(=O)O)NC(=O)[C@@H](C)NC(=O)[C@@H](N)Cc1ccc(O)cc1)[C@@H](C)O)[C@@H](C)CC)C(=O)N[C@@H](C)C(=O)N[C@@H](CC(C)C)C(=O)N[C@@H](CC(=O)O)C(=O)N[C@@H](CCCCN)C(=O)N[C@H](C(=O)N[C@@H](Cc1c[nH]cn1)C(=O)N[C@@H](CCC(N)=O)C(=O)N[C@@H](CCC(N)=O)C(=O)N[C@@H](CCC(=O)O)C(=O)N[C@@H](Cc1ccccc1)C(=O)N[C@H](C(=O)N[C@@H](CCC(=O)O)C(=O)N[C@@H](Cc1c[nH]c2ccccc12)C(=O)N[C@@H](CC(C)C)C(=O)N[C@@H](CCCCN)C(=O)N[C@@H](C)C(=O)NCC(=O)NCC(=O)N[C@@H](Cc1c[nH]cn1)C(=O)N1CCC[C@H]1C(=O)N[C@@H](CO)C(=O)NCC(=O)N[C@@H](C)C(=O)N1CCC[C@H]1C(=O)N1CCC[C@H]1C(=O)N1CCC[C@H]1C(=O)N[C@@H](CO)C(=O)N[C@@H](CSCCS(=O)(=O)CCN1CCN(CC(=O)O)CCN(CC(=O)O)CCN(CC(=O)O)CC1)C(N)=O)[C@@H](C)CC)[C@@H](C)CC [[^68Ga]Ga-C803-GIP, metal not drawn]
SUV at 0.5 h ([1]; read-out: uptake in the liver after 30 min): < 1 SUV | SUV at 1.5 h ([1]; read-out: uptake in the liver after 90 min): ~0.5 SUV | predicted absorbed radiation dose, kidneys, females ([2]; human): 0.773 mGy/MBq | predicted absorbed radiation dose, kidneys, males ([2]; human): 0.713 mGy/MBq | Equivalent dose, Adrenals, Female ([2]; human female phantom): 0.0124 mSv/MBq | Equivalent dose, Brain, Female ([2]; human female phantom): 0.000658 mSv/MBq | Equivalent dose, Breasts, Female ([2]; human female phantom): 0.00113 mSv/MBq | Equivalent dose, Gallbladder Wall, Female ([2]; human female phantom): 0.00555 mSv/MBq | Equivalent dose, Heart Wall, Female ([2]; human female phantom): 0.0362 mSv/MBq | Equivalent dose, Kidneys, Female ([2]; human female phantom): 0.773 mSv/MBq | Equivalent dose, LLI Wall, Female ([2]; human female phantom): 0.00196 mSv/MBq | Equivalent dose, Liver, Female ([2]; human female phantom): 0.00754 mSv/MBq | Equivalent dose, Lungs, Female ([2]; human female phantom): 0.0073 mSv/MBq | Equivalent dose, Muscle, Female ([2]; human female phantom): 0.00306 mSv/MBq | Equivalent dose, Osteogenic Cells, Female ([2]; human female phantom): 0.0145 mSv/MBq | Equivalent dose, Pancreas, Female ([2]; human female phantom): 0.0089 mSv/MBq | Equivalent dose, Red Marrow, Female ([2]; human female phantom): 0.0135 mSv/MBq | Equivalent dose, Skin, Female ([2]; human female phantom): 0.001 mSv/MBq | Equivalent dose, Small Intestine, Female ([2]; human female phantom): 0.00398 mSv/MBq | Equivalent dose, Spleen, Female ([2]; human female phantom): 0.0124 mSv/MBq | Equivalent dose, Stomach Wall, Female ([2]; human female phantom): 0.00374 mSv/MBq | Equivalent dose, Testes/Ovaries, Female ([2]; human female phantom): 0.00189 mSv/MBq | Equivalent dose, Thymus, Female ([2]; human female phantom): 0.00198 mSv/MBq | Equivalent dose, Thyroid, Female ([2]; human female phantom): 0.000543 mSv/MBq | Equivalent dose, ULI Wall, Female ([2]; human female phantom): 0.00371 mSv/MBq | Equivalent dose, Urinary Bladder Wall, Female ([2]; human female phantom): 0.00202 mSv/MBq | Equivalent dose, Adrenals, Male ([2]; human male phantom): 0.00936 mSv/MBq | Equivalent dose, Brain, Male ([2]; human male phantom): 0.000541 mSv/MBq | Equivalent dose, Breasts, Male ([2]; human male phantom): 0.000934 mSv/MBq | Equivalent dose, Gallbladder Wall, Male ([2]; human male phantom): 0.00515 mSv/MBq | Equivalent dose, Heart Wall, Male ([2]; human male phantom): 0.0319 mSv/MBq | Equivalent dose, Kidneys, Male ([2]; human male phantom): 0.713 mSv/MBq | Equivalent dose, LLI Wall, Male ([2]; human male phantom): 0.00166 mSv/MBq | Equivalent dose, Liver, Male ([2]; human male phantom): 0.006 mSv/MBq | Equivalent dose, Lungs, Male ([2]; human male phantom): 0.00576 mSv/MBq | Equivalent dose, Muscle, Male ([2]; human male phantom): 0.00227 mSv/MBq | Equivalent dose, Osteogenic Cells, Male ([2]; human male phantom): 0.0109 mSv/MBq | Equivalent dose, Pancreas, Male ([2]; human male phantom): 0.00777 mSv/MBq | Equivalent dose, Red Marrow, Male ([2]; human male phantom): 0.014 mSv/MBq | Equivalent dose, Skin, Male ([2]; human male phantom): 0.000859 mSv/MBq | Equivalent dose, Small Intestine, Male ([2]; human male phantom): 0.0031 mSv/MBq | Equivalent dose, Spleen, Male ([2]; human male phantom): 0.0101 mSv/MBq | Equivalent dose, Stomach Wall, Male ([2]; human male phantom): 0.00335 mSv/MBq | Equivalent dose, Testes/Ovaries, Male ([2]; human male phantom): 0.00137 mSv/MBq | Equivalent dose, Thymus, Male ([2]; human male phantom): 0.00178 mSv/MBq | Equivalent dose, Thyroid, Male ([2]; human male phantom): 0.000487 mSv/MBq | Equivalent dose, ULI Wall, Male ([2]; human male phantom): 0.00309 mSv/MBq | Equivalent dose, Urinary Bladder Wall, Male ([2]; human male phantom): 0.00152 mSv/MBq | Effective dose, Female ([2]; whole-body, human female phantom): 0.0237 mSv/MBq | Effective dose, Male ([2]; whole-body, human male phantom): 0.0217 mSv/MBq
